Square brackets hold non-standard residues; d marks the D form. Ends that are not written are not given here. pS = N[C@@H](COP(=O)(O)O)C(=O)O
T1: IRAK1 p163 peptide 157-180 (Homo sapiens, UniProt P51617, phospho-Ser163)
T1 chain: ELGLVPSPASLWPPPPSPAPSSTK

T2: IRAK1 p144 peptide 140-149 (Homo sapiens, UniProt P51617)
T2 chain: STFL[pS]PAFPG

T3: IRAK1 p131 peptide 126-135 (Homo sapiens, UniProt P51617)
T3 chain: EAEAW[pS]PRKL

T4: IRAK1 p163 peptide 157-180 (Homo sapiens, UniProt P51617)
T4 chain: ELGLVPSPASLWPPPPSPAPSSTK


How the values were obtained:
Test in all cases: NMR titration
[1] = molecular target: T1, IRAK1 p163 peptide 157-180
[2] = molecular target: T2, IRAK1 p144 peptide 140-149
[3] = molecular target: T3, IRAK1 p131 peptide 126-135
[4] = molecular target: T4, IRAK1 p163 peptide 157-180

Binder | Kd [1] [µM] | Kd [2] [µM] | Kd [3] [µM] | Kd [4] [µM]
Pin1 PPIase domain 46-163 (protein) KNGQGEPARVRCSHLLVKHSQSRRPSSWRQEKITRTKEEALELINGYIQKIKSGEEDFESLASQFSDCSSAKARGDLGAFSRGQMQKPFEDASFALRTGEMSGPVFTDSGIHIILRTE | 230 | 689 | 161 | 
MADEEKLPPGWEKRMSRSSGRVYYFNHITNASQWERPSGNSSSGGKNGQG (not fully specified; phospho-Ser163) [Pin1 WW domain 1-50] |  |  |  | 385

— article PMC5298935 (2016)
